Molecular target: T1, extracellular domain of human BCMA (Homo sapiens, UniProt Q02223)
T1 construct: B cell maturation antigen (BCMA), human, extracellular domain; PDB 4ZFO chain F was only the search model for molecular replacement; For the Octet experiments the methods say that antigens were either expressed in-house (ECD with His-tag) or commercially available
Assay: crystal structure; BCMA and UniAb VH mixed at a 1:2 molar ratio for 20 min at 4°C, complex isolated by SEC (20 mM PBS, 250 mM NaCl); sitting drop vapor diffusion, 0.2 M sodium malonate pH 4.0, 20% PEG 3350; 2.6 Å; two complexes in the asymmetric unit
Settings: both partners purified

T1 sequence (Q02223 1-54): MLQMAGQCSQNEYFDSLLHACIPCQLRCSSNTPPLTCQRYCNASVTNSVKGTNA

binding result: binds
B1: anti-BCMA UniAb VH (IgHV3-23) (VHH)
VHH: EVQLVESGGGLVQPGGSLRLSCAASGFTVSSYGMSWVRQAPGKGPEWVSGIRGSDGSTYYADSVKGRFTISRDNSKNTLYLQMNSLRAEDTAVYYCAKQGENDGPFDHRGQGTLVTVS
notes: fully human VH single domain (IgHV3-23) from a UniRat heavy chain-only antibody, with R109 in framework 4 (W101R, Kabat); Human VH used as a single domain, no light chain and no Fc; also called UniAb VH (VH3-23)
